Like-named read-outs stand apart in the source and are kept apart here. No end group written: not given here. *: point of attachment. Oxazole(5-CO) = O=C(c1cnco1)*; 2Furoyl = O=C(c1ccco1)*; Cbz = O=C(OCc1ccccc1)*
B1: compound 1 (XL-01) (peptide)
peptide: KQTARKSTGG-NH2
modifications: not fully specified (residue 6); also: Lys6 acylated with group R, structure drawing only
notes: also called 4.1
B2: compound 26 (XL-07j) (peptide)
peptide: Cbz-QTARK(2Furoyl)-NH2
SMILES: C[C@H](NC(=O)[C@@H](NC(=O)[C@H](CCC(N)=O)NC(=O)OCc1ccccc1)[C@@H](C)O)C(=O)N[C@@H](CCCNC(=N)N)C(=O)N[C@@H](CCCCNC(=O)c1ccco1)C(N)=O
notes: also called 4.7j

Columns and labels:
[1] = molecular target: T1, AF9 YEATS domain, His-AF9 (1-138) (human, UniProt P42568 1-138); assay: photo-cross-linking-based competition against the photoaffinity probe (probe 1) on AF9 YEATS domain, in-gel fluorescence
T1 construct: Expressed in E. coli; not shown: His tag
T1 sequence (looked up): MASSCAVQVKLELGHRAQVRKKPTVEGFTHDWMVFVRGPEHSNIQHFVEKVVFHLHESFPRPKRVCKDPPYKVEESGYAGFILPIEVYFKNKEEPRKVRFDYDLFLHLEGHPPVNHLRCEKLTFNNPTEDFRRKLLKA

[2] = molecular target: T1, AF9 YEATS domain, His-AF9 (1-138); assay: photo-cross-linking competition vs photoaffinity probe, in-gel fluorescence
[3] = molecular target: T2, YEATS2 YEATS domain, His-SUMO-YEATS2 (201-332) (human, UniProt Q9ULM3 201-332); assay: photo-cross-linking-based competition against the photoaffinity probe on the YEATS2 YEATS domain, in-gel fluorescence
T2 construct: range 201-332; Expressed in E. coli; also called YEATS2 domain; not shown: His-SUMO tag
T2 sequence (looked up): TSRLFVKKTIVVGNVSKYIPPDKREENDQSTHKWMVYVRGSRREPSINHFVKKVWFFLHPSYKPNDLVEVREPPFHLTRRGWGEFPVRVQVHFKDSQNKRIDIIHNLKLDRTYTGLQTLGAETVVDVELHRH

[4] = molecular target: T1, AF9 YEATS domain, His-AF9 (1-138); assay: method and target not named in the sentence (AF9 YEATS by context)
[5] = molecular target: T3, Gas41 YEATS domain, His-Gas41 (15-159) (human, UniProt O95619 15-159); assay: photo-cross-linking competition vs photoaffinity probe, in-gel fluorescence
T3 construct: Expressed in E. coli; not shown: His tag

[6] = molecular target: T4, ENL YEATS domain, His-SUMO-ENL (1-138) (human, UniProt Q03111 1-138); assay: as above
T4 construct: Expressed in E. coli; not shown: His-SUMO tag
T4 sequence (looked up): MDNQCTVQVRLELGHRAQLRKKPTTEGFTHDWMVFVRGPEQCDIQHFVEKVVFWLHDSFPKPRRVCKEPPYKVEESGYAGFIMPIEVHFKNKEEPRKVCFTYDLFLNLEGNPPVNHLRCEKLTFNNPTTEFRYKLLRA

[7] = molecular target: T1, AF9 YEATS domain, His-AF9 (1-138); assay: as above; remark: listed apart in the source
[8] = molecular target: T2, YEATS2 YEATS domain, His-SUMO-YEATS2 …; assay: as above
[9] = molecular target: T3, Gas41 YEATS domain, His-Gas41 (15-159); assay: as above; remark: listed apart in the source
[10] = molecular target: T4, ENL YEATS domain, His-SUMO-ENL (1-138); assay: as above; remark: listed apart in the source
[11] = molecular target: T2, YEATS2 YEATS domain, His-SUMO-YEATS2 …; assay: as above; remark: listed apart in the source

T3 sequence (O95619 15-159 limits assumed): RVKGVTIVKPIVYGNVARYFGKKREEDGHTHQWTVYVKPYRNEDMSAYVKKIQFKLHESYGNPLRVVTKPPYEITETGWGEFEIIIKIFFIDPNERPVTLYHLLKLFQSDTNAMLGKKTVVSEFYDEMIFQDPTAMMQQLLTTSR

Binder | IC50 [1] | IC50 [2] | IC50 [3] | Kd [4] | IC50 [5] | IC50 [6] | IC50 [7] | IC50 [8] | IC50 [9] | IC50 [10] | IC50 [11]
B1 | 31.8 µM | 27.9 µM | – | – | – | – | – | – | – | – | –
B2 | – | 0.26 µM | 42.2 µM | 0.33 µM | 123 µM | 1.3 µM | 0.26 µM | 42.4 µM | 123 µM | 1.3 µM | 42.4 µM
Cbz-QTARK(Oxazole(5-CO))-NH2 (also called 4.13a) [compound 27 (XL-13a)] | – | 0.24 µM | – | 0.131 µM | 14.5 µM | – | 0.24 µM | 98.7 µM | 14.5 µM | – | 98.7 µM

Source: patent US20210277061A1 (UNIVERSITY OF HONG KONG, published 2021)
